For one data set, the system named is HSV-1. Briefly: Plaque reduction assay, HSV-1 in Vero cells. The following applies: for % Inhibition (plaque reduction, HSV-1 replication): Vero cells, estimation. Format: cell-based, herpes simplex virus type I. On the procedure:
Specifically, monolayers of cells were pretreated by incubation with one of conjugates (III) and (IV), infected with various concentrations of HSV-1 (measured by plaque forming units, PFU) and the infected cells were then incubated in the presence of conjugate. Following incubation with the conjugate, the cells were stained using the conventional crystal violet staining method. Those portions of the cell monolayer appearing as clear, unstained areas were identified as dead, virally-infected cells (i.e. plaques), while those areas stained purple indicated viable cells. Thus, inhibition of the virus was determined by counting, using a dissecting microscope, the number of plaques. The number of plaques on a plate incubated in the presence of conjugate was compared to the number of plaques on a control plate incubated in the absence of conjugate and the extent of viral inhibition was thus determined.
Vero cells (African green monkey kidney cells, ATCC CCL 81) were seeded into a 96-well plate at a concentration of 2×10^4 cells per well in 50 μl of Dulbecco's modified eagle medium (DMEM, Gibco). The media was supplemented with 10% Nu-serum (Biomedical Products), penicillin (100 IU/ml), streptomycin ([…]) and gentamicin (0.02 mg/ml) obtained from Gibco. The cells were pretreated with polynucleotide conjugate (III) at concentrations of 1 μM and 10 μM by incubation for 24 hours at 37° C. and 5% CO2. Following the incubation, the culture medium was removed from the cells. […]
The media was removed from the cells and the cells were subsequently stained with crystal violet in 70% ethanol:formalin:acetic acid (20:2:1) solution and heat fixed. The average number of plaques per well of each test sample were counted using a dissecting microscope (10-40× magnification). Inhibition was determined as the difference between the number of plaques in the control sample (0 μM conjugate) and the number of plaques in the test sample. […]

Data set [1] has as its system HIV-1 Tat-derived peptide RKKRRQRRRPPQGS (Human immunodeficiency virus 1). Briefly: EMSA. For orientation: In EMSA bound probe runs differently from free probe, usually more slowly.
Data set [2] deals with T1, HIV-1 Tat-derived peptide RKKRRQRRRPPQGS (Human immunodeficiency virus 1).
T1 chain: RKKRRQRRRPPQGS
Briefly: EMSA; 38.3% active RNA. The conditions noted are these: protein: synthetic; tags: synthetic peptide, American Peptide Co; HIV LAI isolate; label: 5'-32P; linker-bridged hairpin with UCU bulge.

In data set [3] the target is T1, HIV-1 Tat-derived peptide RKKRRQRRRPPQGS
The experiment in a line: EMSA; Tm 60 C. The conditions noted are these: protein: synthetic; tags: synthetic peptide, American Peptide Co; HIV LAI isolate; label: 5'-32P; linker-bridged hairpin.

Data set [4] shares this target. Briefly: EMSA; 17.8% active RNA. The conditions noted are these: protein: synthetic; tags: synthetic peptide, American Peptide Co; HIV LAI isolate; label: 5'-32P; linker-bridged hairpin with UCU bulge.
The target is the same in data set [5]. The experiment in a line: EMSA; binds efficiently. The conditions noted are these: protein: synthetic; tags: synthetic peptide, American Peptide Co; HIV LAI isolate; label: 32P; cyclic dumbbell with UCU bulge.
Data set [6] concerns the target T2, HIV-1 Tat full-length (86 aa) (Human immunodeficiency virus 1, UniProt P04608 P04608:1-86). The experiment in a line: EMSA; binds efficiently. The following applies: tags: American Bio-Technologies, Inc; label: 32P; cyclic dumbbell with UCU bulge.
The target in data set [7] is T1, HIV-1 Tat-derived peptide RKKRRQRRRPPQGS
The experiment in a line: EMSA; 40.1% active RNA. The following applies: protein: synthetic; tags: synthetic peptide, American Peptide Co; HIV LAI isolate; label: 5'-32P; linker-bridged hairpin with UCU bulge.

Data set [8] has the same target. Briefly: EMSA; Tm 61 C; SEQ 2 in the listing appears to be printed 3'-5'. The conditions noted are these: protein: synthetic; tags: synthetic peptide, American Peptide Co; HIV LAI isolate; label: 5'-32P; bottom-linked duplex with UCU bulge.
Data set [9] concerns the target T2, HIV-1 Tat full-length (86 aa). Briefly: EMSA; pre-formed complex used for competition. The following applies: tags: American Bio-Technologies, Inc; label: 5'-32P; hairpin with UCU bulge and 6-nt loop.
Data set [10] deals with T1, HIV-1 Tat-derived peptide RKKRRQRRRPPQGS
The experiment in a line: EMSA; 10 mM Tris pH 7.5, 50 mM NaCl, 1 mM DTT, 1 mM EDTA, 23 C; 45.9% active RNA. The conditions noted are these: protein: synthetic; tags: synthetic peptide, American Peptide Co; HIV LAI isolate; label: 5'-32P; hairpin with UCU bulge and 6-nt loop.

Results on eleven molecules are retold here after patent publication US5495006A, “Antiviral polynucleotide conjugates” (Allelix Biopharmaceuticals, Inc., priority 1993, dated 1996).

As to “conjugate (III): 22-deoxyribonucleotide fully hybridized ICP4 DNA-binding site (SEQ ID NOS 6 and 7), strands joined by linker LA HO--(CH2)9--OH (chain 1 CGCTATCGTCCATACCGACCAC; chain 2 GTGGTCGGTATGGACGATAGCG; DNA, backbone not given here; strands joined by nonanediol linker)”, the figures for the “% Inhibition (plaque reduction, HSV-1 replication)” value in the data set on HSV-1 (1 μM conjugate) and in the data set with HSV-1 (10 μM conjugate) were 25% and 50%, respectively. Also, the “Inhibition of HSV-1 (in words)” value in the data set on HSV-1 (plaque reduction assay) is on record as “inhibit HSV-1”. “GGAGAUCUGAGCGCUCUCUCC [TAR conjugate 5D]” came in with a dissociation constant (Kd) in data set [1] (linker D (hexaethylene glycol) replaces 6-nt loop between the two strands, 56.0% active RNA) of 0.66 nM. “GGAGAUCUGAGCGCUCUCUCC [TAR conjugate 5B]” came in with a Kd in data set [1] (linker B (triethylene glycol) replaces 6-nt loop between the two strands, 42.6% active RNA) of 0.95 nM.

Molecule GGAGAUCUGAGCGCUCUCUCC (ssRNA, two coupled linkers B replace 6-nt loop between the two strands) [TAR conjugate 5BB] had a Kd in [2] of 1.13 nM.

B1: TAR conjugate structure 8 (ssRNA)
RNA: GGAGAUGAGCGCUCUCUCC
modifications: bulge UCU replaced by U-Lc-Lc (two C3 linkers between nt 6 and nt 9); loop closure shown only in structure drawing
As for B1, the Kd in [3] is 0.51 nM. In turn, GGAGAUCUGAGCGCUCUCUCC (ssRNA, two coupled linkers C replace 6-nt loop between the two strands) [TAR conjugate 5CC] registered a Kd in data set [4] of 0.43 nM. Turning to UCUCCUUCGGGAGAUCUGAGCCUGGGAGCUC (ssRNA, cyclic (T4 RNA ligase closed)) [cyclic TAR 31-mer (oligomer 13)], the binding result in data set [5] and in data set [6] was “binds” in each case. With GGAGAUCUGAGCGCUCUCUCC (ssRNA, linker A -O-(CH2)9-O- replaces 6-nt loop between the two strands) [TAR conjugate 5A], the Kd in data set [7] came to 0.71 nM. Take GCUCUCUCCGGAGAUCUGAGC (ssRNA, chemical linker at bottom of duplex between the two strands) [TAR conjugate oligomer 9]: in [8], the Kd was found to be 2.2 nM. In the case of GGAGAUCUGAGCCUGGGAGCUCUCUCC (ssRNA) [TAR 27-mer (oligomer 4)], the binding result in data set [9] is recorded as “binds”. In data set [10], this molecule had a Kd of 0.41 nM. Take GGAGAUCUGAGCGCUCUCUCC (ssRNA, cyclic 21-mer, linker D at top and bottom of duplex) [cyclic TAR conjugate oligomer 15]: the binding result in data set [6] is on record as “binds”.

As a reminder, the Kd is the free concentration of one partner at which half of the binding sites on the other are occupied at equilibrium, for simple one-to-one binding. Higher therefore signals weaker binding.
